B1: CRISP2 (cysteine-rich secretory protein 2), C-terminal polyhistidine tag [modified: RED-tris-NTA fluorescent label on the His tag; RED-tris-NTA fluorescent label on the His tag] [human] / prostate secretory protein of … (parent)
chain 1: KDPAFTALLTTQLQVQREIVNKHNELRKAVSPPASNMLKMEWSREVTTNAQRWANKCTLQHSDPEDRKTSTRCGENLYMSSDPTSWSSAIQSWYDEILDFVYGVGPKSPNAVVGHYTQLVWYSTYQVGCGIAYCPNQDSLKYYYVCQYCPAGNNMNRKNTPYQQGTPCAGCPDDCDKGLCTNSCQYQDLLSNCDSLKNTAGCEHELLKEKCKATCLCENKIY
chain 2: SCYFIPNEGVPGDSTRKCMDLKGNKHPINSEWQTDNCETCTCYETEISCCTLVSTPVGYDKDNCQRIFKKEDCKYIVVEKKDPKKTCSVSEWII

Variants of: B1
Experiment: microscale thermophoresis
Conditions: with prostate secretory protein of 94 amino acids (PSP94), measurements in triplicates, PSP94 titrated (x axis PSP94 [nM])

Variant	Kd
chain 1 N76P L77G	4 nM

From publication PMC8857485, “Prostate secretory protein 94 inhibits sterol binding and export by the mammalian CAP protein CRISP2 in a calcium-sensitive manner” (The Journal of Biological Chemistry, 2022)
